Data published in the Human Domainome abundance scans (Beltran et al. 2025).

B1: Double-stranded RNA-binding protein Staufen homolog 1, residues 183 to 249; numbered along this chain, O95793 (parent)
chain: KSEISQVFEIALKRNLPVNFEVARESGPPHMKNFVTKVSVGEFVGEGEGKSKKISKKNAAIAVLEEL

Variants of: B1
Assay: abundance fitness (aPCA) (normalised: wild type 0, dead -1); higher = more abundant; growth selection in yeast, the domain comes from the species named
Conditions: Homo sapiens

Abundance fitness: each site, then its substitutions
E42: K -0.046; Q -0.05; P 0.053; F -0.355; H 0.014; L -0.255; R -0.032; Y -0.131; T -0.048; C -0.161; M -0.1; W -0.3; I -0.407; D -0.137; A 0.016; S 0.028; G 0.011
V44: G -0.414; R -0.051; E -0.132; Y -0.099; F -0.195; W -0.112; D -0.238; S -0.086; I -0.04; P -0.789; A -0.18; M -0.045; H -0.102; T -0.015; K -0.016; L -0.14; C 0.033; Q -0.074
F34: R -0.74; K -0.725; L -0.698; P -0.458; Y 0.038; M -0.56; W 0.089; E -0.56; N -0.468; C -0.547; S -0.54; V -0.541; H -0.544; Q -0.447; I -0.372; D -0.578; T -0.428; G -0.554
E48: M -0.013; F -0.01; W -0.011; C 0.064; K 0.089; Y 0.002; D -0.427; Q 0.054; P -0.808; T 0.037; H -0.061; V 0.048; I 0.128; L -0.044; A 0.001; S 0.007; N -0.045; R 0.104
S51: H -1; K -0.344; F -0.929; E -0.553; G -0.791; I -0.904
E46: Q 0.051; I 0.052; S -0.051; T 0.071; G -0.449; Y -0.013; N 0.01; V 0.036; W 0.039; K -0.04; F 0.076; M 0.028; A -0.151; P -0.939; C -0.034; H 0.011
G45: Q -0.395; A 0.069; P -0.975; Y -0.422; E -0.484; W -0.582; N -0.594; D -0.645; M -0.585; S -0.146; R -0.265; H -0.619; C -0.038; T -0.246; F -0.373; K -0.108; I -0.487; V -0.345; L -0.591
K32: L -0.179; E -0.077; R -0.052; H -0.249; I -0.178; T -0.118; W -0.483; P -0.099; F -0.516; S -0.138; M -0.178; N -0.192; D -0.332; G 0.001; Y -0.187; Q -0.129
K37: A -0.293; L -0.311; N -0.328; C -0.251; Y -0.681; G -0.758; P -0.756; T -0.364; R 0.034; F -0.58; V -0.345; I -0.529; Q -0.25; E -0.553; S -0.364; H -0.292; W -0.442
G49: Q -0.741; H -0.53; F -1.14; M -0.729; N -0.748; V -0.694; S -0.483; T -0.8; C -0.911; L -0.802; W -1.14; Y -1; P -0.854; A -0.485; I -0.791; D -0.519; E -0.74
S39: R 0.029; A -0.067; G -0.55; I -0.12; Q -0.034
